Measurements: the domain aggregation screens of Martell et al. (2025)

Assay: soluble fraction after stress (log2 fold change); higher = more stays soluble; pooled small domains, quantitative proteomics
Conditions: stress: 50 degC
How it was run: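 The measure of aggregation propensity here is the base-two logarithm of the fold change in the soluble amount of each protein after stress. A higher value means more of that protein stays in solution. Stress was applied at 50°C to pooled libraries of small protein domains, read out by high-throughput quantitative proteomics.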

Point of comparison: “HMRISKRQLILESAAAIINEKGADYLTLDAVAQRAGISKGGLFYHFKSKDELIKELVNYANN”, “soluble fraction (log2)” value -0.14. Against it:
- HMRPEVALSSRELEILEALATGKSNKELAQRLFISEATVKTHLIHIYQKLGVDTRTAAVTVARERKL — lower, -1.52
- HMDTSISHLVGRTGEAVTDLRPAGTVMIDGELYDARATEGFIEKGEIVKAIKYQYGQLNVRRVSK — higher, 0.0877
- HMINLRTALNNAGVMQKELSDILYMTPQDVNRRFSGVTKWKPLEKRAIMQFLEDRGFEYTEEQLF — lower, -0.532
- HMESPLNPTDVRRAAMDLLARREHGVEELRLKLKRRFGREEDFETIATEQLQRLVDEDLLSDTRF — within 0.2 log units, -0.165
- HMEQIFTELIMDGRVLGENLHRMGVDETWLLRQLRQQGYHSAREVFLAVADANKQVAVYPVS — within 0.2 log units, -0.308
- HMQDFEQNLFDGKSIYDRMLSKFSLHNVDVKQLVAHFKRKDTEQFFADIGRGLITSAQMLGFLQT — within 0.2 log units, -0.289
- HMKRITKKQLSQQLEQFFSSQPGKKLTLKDIFRALHLDTHPLKMLAMDIMEEMAWDDFITKKGENAYQLNT — lower, -0.729
- HMYEPPTEDEKRVLSLLATRESIVRSDVDRLLGVSQSTANRILKQMIEKYLISQEGTGKNTKYIK — within 0.2 log units, -0.0391
- HMFDITKEVLKQSGLYNLYKNDESLEGINRIQNIEELLNGIKDFVENNEKSQASVSSFLQDVALATDQ — higher, 0.126
- HMAGAITEREVEVLELLSRGLGNKEIAKELFVSEATVKSHLSHIYTKLAVDTRAGAVAAAIERRIIRAWR — lower, -1.92
- HMKKKLPRYLQEQKYGNGMVFYRYNPTARYIDEGIVTRTNLGSDLSIAKKKANEFNKLIDAFLQQQSE — lower, -0.92
- HMTGKTTLEYLNPLLERGIPVWDYLAKASGKAKEEVQEMVSKGLVPGAEAAKAIADYMGAEFAGSMA — within 0.2 log units, 0.0316
- HMPPTSADGIEKYLASGMIRGVGPVYAKKLVSAFGDKVFDIIEAAPHQLQEVEGIGRVRAASILAAWAEQ — higher, 0.134
- HMTRIHEEVVNQVHDLVKEGRFKAGDQLPSERELAEIFKVSRTSVREALRALETQGLIISRTGMGNFIAD — within 0.2 log units, -0.0448
- HMGPTLTDEEEVVLNLLEKNHPVLLSELKENAGLSNKKWDKAIKGLSAHKLAKVTKTDDGLFVHLS — within 0.2 log units, 0.0395
- HMAMTNEEREALISEIKQTVNNSIDLKKDISDTEIKEAITQAVFERSEKSYLSIAEKQDIITAVFNSMR — within 0.2 log units, 0.0202
- HMDFGMPEELQKKLDKMPALKAAFEALTPGRQRGYIFYFSQPKQSKTRELRIEKSIEQIMNGKGLND — within 0.2 log units, -0.115
- HMSIPVLKDGTYESWGNEKVYKVGDRVMVGSNGYVAKWWNQDETPEKAIINPNDSPWRPMTESEIMEVLK — within 0.2 log units, -0.0154
- HMDRRSTTLQDIYTRIDAEEISEALELIPKLGEIEFEQNRAEIAEAAGVRPAVLDKLRKQAAKQENNKK — within 0.2 log units, -0.0355
- HMSEYLDIHMAMEKLNRKEQLFVHLRFYEGLTQSEIAQRLFTSQVQISRLEKSVLEKMRQILSK — lower, -1.34
- HMERAFRILELFDLKQDELPITEIAERTGLPISTAHRLLSTLETLGYIAQNPDNGRYRLGLQTFVLGSR — lower, -0.987
- HMIGERIKRARAAAGLSMQALGKQVGISANMVKKYEHDQSMPSSGVLLKLATALSVRTEYFFRPA — lower, -1.28
- HMEDKKQVLYELITDKSYRPLRFKELAVLLMVPKALRGELKQTLDELIKEGKITVDSSSRYRAA — higher, 0.133
- HMKISDMIETNLKFLRGKHSISQAELAESLGIPRTTLSAYERGFVEPNIELMLKMAKYFNVSLDDLIAYN — lower, -1.88
- HMQPFTELTPREREILGHLAEGQSNKVIARHLDISDGTVKLHVKAILRKLGVHSRVEAAVMAVEHGIR — lower, -1.31
- HMNDTLQEYFEALERLKSNNPINVPKNTKINNDSVALEAGRKRGSIKKSREIFAELIEAINNAS — within 0.2 log units, -0.0859
- HMVNGEFIDRIKVILQENNATRKKDRLTKTRMYQLLQEEGYEGSYSAFTYQVRIIEEELGINNK — lower, -1.51
- HMAASTPGTVTGSVVNVRPDPSTNNDRIGVIYQGTKVEILAQVGEWYNIQFGPVSGWVHKDYISTGA — within 0.2 log units, 0.00638
- HMSTEPLALVGKTGIAATVLRPSGRIEVDDKYYDAVSLGAFIEKGEMVNIVKYENLQLYVAKL — within 0.2 log units, -0.0644
- HMYYHQIIGLDVVDENGNTLGKIKEILSPGANDVWVVKRKQKNDLLLPVIDDVIKDVDLAAGKVHVELLEG — within 0.2 log units, -0.0975
- HMAGASQAVKAQLRLREMILAGELPGGARIAELTLVEKLGVSRTPIRAALMRLEQEGLLHRLPGGGYAVRT — lower, -0.52
- HMFSGVQLGQAISEAIKRKNVSQKEVADHFGVKQPSVSGWIKNGRIDKKHLDKLIDYFSDVVTPSHFGIE — higher, 0.246
- HMSTEAVVMSSSVSVKSSPDKASTDLFVLHEGTKVRTVSELGDWREIVIADGKKGWVEARTIET — higher, ≥ 0.62
- HMDYKSNLQEMVQTTKKSVTYELVKEEGPAHDRTFTMNVIVDGIVLGTGTAKSKKEAEQEAAHQALEKKA — within 0.2 log units, -0.0398
- HMLNERQKKIIKILKDNKNWMTGKELSEFLNVSDRTIRSDIEYINRYNNALIESNVKNGYHLNFE — higher, 0.12
- HMQPDDELVRLLLIKIFNDKQLKVNPAVINYLLRRIDRSFESINNFVKKIDEFSLEKGRKITVNLVSGFF — lower, -0.653
- HMIVVTSPQVTDERIAEIVAFIEKHGVQAHVSRGTDRTVIGIIGKADPVLAEHLRSMQGVENVIKIS — within 0.2 log units, -0.0652
- HMYRYGETPMVVVPDLIGRTVSDIYEEMNADFRLEKFGNGNTVISQAPKPGERVEQGSVIRVYLSGQDQ — higher, 0.157
- HMSSEQRSVLFPNLAETDKVAVIEALMAAGVNARVDSASGRVTVPSGDYYNSRAILAAQGLPTS — higher, 0.0696
- HMTTEIVRMKKDVKIGQEITAKDIEVVEVGAYNLPDEVIRSSEEVVGKYVSSELLKGEYVLPSKISDTP — higher, 0.0729
- HMRIGINDRIHEIVDVLRLKKSTPFEDLFSGLVTRFDLVITFLALLEMGKLRLLRLYQTDPLAPLHVEYTG — within 0.2 log units, -0.152
- HMNNNIFVYPNPSINYINIDSDEEIWKLEIIQMSGEKINILPFSKRIDISFLSKGLYILNFNNYYIKFIK — within 0.2 log units, -0.187
- HMDGEFINLKNRAGTEIEARILNYQNGQVKLERKDGVTFVVSISMFDAKSVIAINHKIAEIIDT — lower, -1.37
- HMEPEAKIDFILKAAQKRLGLYGYEKTTMQEIAADINMSKAALYYYFPDKESLFKAVVENEQEEYFH — lower, -1.63
- HMTINPFSTLAVRELEILHYLLNGHRTKEIATNLGLKMNTVSTIKSNIFEKVKADSFTHLLQLAHVHQIS — lower, -0.888
- HMGNWEQQLRSWADGELATGKQDILTTAVPAFERALIETALSHTNGRKRDAAELLGWGRNTLTRKLKELGM — lower, -0.371
- HMVWTAGEVVERIRERVGHPATIRELMQVLTIPPEDRHRFRRRIMQLVEAGELIRIRGNRYGLAD — lower, -2.3
- HMAEVPSLIGKSLDAAKQAIIDAGFKVGSVSYDNSDSYGKGQVMWQQYEPSTKVKKGSSISIKVSKGS — within 0.2 log units, 0.00591
- HMHLYDMYNLTEKEISIIRLIANGLNNKEISQELFLSEGTIKNNITNILAKLELRDRTQLAIFAFKNKIVI — lower, -0.484
- HMQQTAEDWKNKGDSLTAQSEYVEAIAAYDEAIRLDPNYAPAWSNKGNALKNLGEYYKAIQAYDEAIRL — higher, 0.198
- HMLHNEFINDRIQSAINNLSEHFKIVIILRDIQELSYEEISNIVEVPLGTIKSRINRARIQLQAELLDL — higher, 0.269
- HMGIDVSAFSDTALEVLRLQAAGYTTREIAQQLHITQRTVKYHASENYRKLDARNLVDAVQIAQSLHI — lower, -1.41
- HMYIDANTALLAKRIQAKNGFLPLSDKSTAEEIYAEFGISKKAFKKALGALYKERLVRIGDEGVVWV — lower, -1.79
- HMEPDTVVVPNFVGKVYASEIEGNEAYSDFTFVIKEGNDPEQDIGVVLKQTPNEGLEVKKGKEITLTINQ — within 0.2 log units, -0.0593
